Results published in patent US20240164355.

How the values were obtained:
[1] = molecular target: all forms of lysine-linked (isopeptide-linked) diubiquitin
[2] = molecular target: Nedd8-AMC, Q15843
[3] = molecular target: Ubiquitin-AMC (Ub-AMC), P0CG48
[4] = molecular target: SUMO2-AMC, P61956
[5] = molecular target: SUMO1-AMC, P63165
[6] = molecular target: ISG15-AMC, P05161
Sequence of ISG15-AMC, P05161 (P05161 2-157): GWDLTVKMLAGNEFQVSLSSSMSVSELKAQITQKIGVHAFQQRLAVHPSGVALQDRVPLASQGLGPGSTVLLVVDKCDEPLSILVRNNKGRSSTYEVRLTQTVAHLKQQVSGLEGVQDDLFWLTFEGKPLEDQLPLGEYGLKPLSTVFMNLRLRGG

Sequence of Ubiquitin-AMC (Ub-AMC), P0CG48 (P0CG48 whole entry, looked up): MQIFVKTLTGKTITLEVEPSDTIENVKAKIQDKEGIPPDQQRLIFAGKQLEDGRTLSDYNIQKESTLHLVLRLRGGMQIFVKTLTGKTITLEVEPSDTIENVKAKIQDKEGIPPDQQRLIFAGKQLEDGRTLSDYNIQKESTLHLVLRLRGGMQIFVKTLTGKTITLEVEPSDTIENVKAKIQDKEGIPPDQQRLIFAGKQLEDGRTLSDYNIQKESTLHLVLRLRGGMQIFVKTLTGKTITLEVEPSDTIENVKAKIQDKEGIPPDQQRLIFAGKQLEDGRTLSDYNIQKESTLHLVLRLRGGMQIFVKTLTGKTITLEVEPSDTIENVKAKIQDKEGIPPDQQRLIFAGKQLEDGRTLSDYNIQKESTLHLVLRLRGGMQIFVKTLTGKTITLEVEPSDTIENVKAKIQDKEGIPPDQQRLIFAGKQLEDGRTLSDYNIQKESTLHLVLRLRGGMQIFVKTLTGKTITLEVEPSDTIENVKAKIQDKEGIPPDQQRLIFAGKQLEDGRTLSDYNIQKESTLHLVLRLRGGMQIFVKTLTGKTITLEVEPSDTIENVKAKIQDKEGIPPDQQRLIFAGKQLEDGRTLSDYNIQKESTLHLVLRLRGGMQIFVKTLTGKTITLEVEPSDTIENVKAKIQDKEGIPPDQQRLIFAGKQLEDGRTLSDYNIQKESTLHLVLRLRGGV
Sequence of Nedd8-AMC, Q15843 (Q15843 whole entry, looked up): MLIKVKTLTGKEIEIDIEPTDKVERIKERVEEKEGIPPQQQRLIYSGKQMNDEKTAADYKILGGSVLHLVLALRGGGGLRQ
Sequence of SUMO1-AMC, P63165 (P63165 2-97): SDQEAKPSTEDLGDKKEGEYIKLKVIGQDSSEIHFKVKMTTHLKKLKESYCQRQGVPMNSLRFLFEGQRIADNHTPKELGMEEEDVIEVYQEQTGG
Sequence of SUMO2-AMC, P61956 (P61956 1-93): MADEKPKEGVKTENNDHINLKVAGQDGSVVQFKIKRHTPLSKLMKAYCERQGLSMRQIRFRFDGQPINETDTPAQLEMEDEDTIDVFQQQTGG

B1: CidB (CidB^wPip), full length (protein)
chain: MSNGDGLIRSLVDGDLEGFRQGFESFLDQCPSFLYHVSAGRFLPVFFFSMFSTAHDANILNANERVYFRFDNHGVNPRNGENRNTANLKVAVYRDGQQVVRCYSISDRPNSDGLRFSTRERNALVQEIRRQNPNLREEDLNFEQYKVCMHGKGKSQGEAIATVFEVIREKDRQGRDKFAKYSASEVHFLRQLFRNHRLTIKEIEGRQLNQNQLRQLGRSVNFTRVEPGQQRIDNFMEMLASNQRQDVRDSLRGDILEYVTDTYNNYRAQIENNIEGRSQKFESHGFLLGFLANFSHRYTIGVDLDLSPRNSHVAFLVRHQVERENIPIVINLATRAPPYIALNRARSHAERLHVFSFIPIHTESRNTVCVGLNFNLNLDPFSVDTVGLQQDRFPLVQRLFECLENEGIRENIRDFLLHHLPAEIPRNAENYDRIFDCITGFAFGNSAFDRHPLELEEEDEAPITKYIFRHGDEGLRCLTMVFHAEGSDIVILHIRAHDAQQQGAINLQTLNVNGNDVHVWEVSCTLNNQLELDIDLPNDLGLYHDYQNNNANNFLAGDLVQVPNTENVHNTLNQVVNDGWKNIAQHRGLFQEISGALMPLVDTINVNSEDKFRSILHGTFYASDNPYKVLAMYKVGQTYSLKRGQEEEGERVILTRITEQRLDLLLLRQPRENDLDTHPIGYVLRLANNAEEVGQQQNDARQEIGRLKKQHRGFIPITSGNEVVLFPIVFNRDAHEAGNLILFPEGIGREEHVHRLDRHVRSSRPGGLVGPESVIDENPPEGLLSDQTRENFRRFYEEKAPGQNSIFLLDIGDNLHVPFSYLQGTRAQVIETLKSRIRGGGTPTAQGILQQINAILRRNNAREIEDVHDLLALDFATDNQNYRYWLQTHDMFFAARQYTFLDNQSHSTNDHYGFEITSVGVDGNQNDPTGRGLLSSHITNFKQKVDSGEKDRLIAIINVGNRHWVTLVIVHQNGNYYGYYADSLGPDSGIDNNIRGALRECDINDDNVHNISVHQQTDGHNCGIWVYENARDINQAIDQALQGNNNFGEKGEGIIGYIRGLLSAGIGNDTRQPRRNEQYFEDRRRDISQLLQNDPNLPSRRSDLIQAHPGIQHEIDPLLLQFLGLQYPQRGGGGALQLGGERVISIDFGNPQSALDKIDGVSRVYNHSNSRGSR
For B1, the “diubiquitin cleavage (panel digest)” value [1] was “Full length CidB cleaves all forms of lysine-linked (isopeptide-linked) diubiquitin, albeit with variable efficiency”.

B2: CidB^wMel (797-1128) (protein)
chain: QNSIFLLDIDDNLHVPFSYLQGTRAQAIETLRSRIRGGGTSTAQGILQQINTILRRNNAREIEDVHNLLALDFATENQNFRYWLQTHDMFFAARQYTFHDDRSNPTNDRHDFAITSVGVDGNQNDPTGRDLLSSNIDNFKQKVDSGEKDRLTAIINVGNRHWVTLVIVHQNGNYYGYYADSLGPDSRIDNNIRGALRECDISDDNVHDVSVHQQTDGHNCGIWAYENARDINQAIDQALQGNSNFGEKGEGIIGYIRGLLSAGIGNDTRQPQRNEQYFRNRRRNISQLFQNDSLSSPRGRLIQGRPGIQHEIDPLLLQFLELQYPQRGGGGA
For B2, the “Nedd8-AMC hydrolysis (AMC release)” value [2] was “both CidB and CidB^wMel cleaved Ub-AMC, and to a much lesser extent, the UBL Nedd8-AMC” and the “Ub-AMC hydrolysis (AMC release)” value [3] was “both CidB and CidB^wMel cleaved Ub-AMC, and to a much lesser extent, the UBL Nedd8-AMC”.

B3: CidB(762-1143) (protein)
chain: SSRPGGLVGPESVIDENPPEGLLSDQTRENFRRFYEEKAPGQNSIFLLDIGDNLHVPFSYLQGTRAQVIETLKSRIRGGGTPTAQGILQQINAILRRNNAREIEDVHDLLALDFATDNQNYRYWLQTHDMFFAARQYTFLDNQSHSTNDHYGFEITSVGVDGNQNDPTGRGLLSSHITNFKQKVDSGEKDRLIAIINVGNRHWVTLVIVHQNGNYYGYYADSLGPDSGIDNNIRGALRECDINDDNVHNISVHQQTDGHNCGIWVYENARDINQAIDQALQGNNNFGEKGEGIIGYIRGLLSAGIGNDTRQPRRNEQYFEDRRRDISQLLQNDPNLPSRRSDLIQAHPGIQHEIDPLLLQFLGLQYPQRGGGGALQLGGERV
For B3, the “UBL-AMC hydrolysis (AMC release)” value [4] was “Despite testing human ISG15-AMC and SUMO1/2-AMC with several concentrations of CidB (up to 400 nM), we failed to detect any AMC release”, the “kcat/KM for Nedd8-AMC” value [2] was “its kcat/KM for Nedd8-AMC was determined to be 0.69 µM^-1 min^-1” and the “UBL-AMC hydrolysis (AMC release)” value [5] was “Despite testing human ISG15-AMC and SUMO1/2-AMC with several concentrations of CidB (up to 400 nM), we failed to detect any AMC release”. The “UBL-AMC hydrolysis (AMC release)” value [6] was “Despite testing human ISG15-AMC and SUMO1/2-AMC with several concentrations of CidB (up to 400 nM), we failed to detect any AMC release”, the “catalytic efficiency for Ub-AMC relative to Nedd8-AMC” value [3] was “CidB^wPip catalytic efficiency for hydrolyzing Ub-AMC is 11-fold greater than for Nedd8-AMC” and the “kcat/KM for Ub-AMC hydrolysis” value [3] was “the kcat/KM for Ub-AMC hydrolysis was 7.59 µM^-1 min^-1”.
